In US20210246218A1 (LYVGEN BIOPHARMA SUZHOU, published 2021):

How the values were obtained:
Test in all cases: ELISA, protein coated at 1 µg/mL
[1] = biological target: T1, human GITR protein (human, UniProt Q9Y5U5 26-161)
T1 sequence (looked up): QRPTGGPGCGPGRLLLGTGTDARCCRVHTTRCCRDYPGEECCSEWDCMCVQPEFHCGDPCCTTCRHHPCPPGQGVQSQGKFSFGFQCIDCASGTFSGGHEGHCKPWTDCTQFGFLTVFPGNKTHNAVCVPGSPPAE
Description: (§1) The plate was decanted and washed once; assay diluent was added at 200 μL/well. After a 1-hour incubation at room temperature, the plate was washed with PBST one time. […] These samples were added into the plate 50 μL/well. The plate was incubated 1 hour at room temperature and then washed three times with PBST. Goat anti-human IgG-H+L HRP-conjugated at 1:100,000 dilution or goat anti-mouse IgG (H+L) secondary antibody, HRP, at 1:50,000 dilution was added to the plate at 100 μL/well. The plate was incubated 1 hour at room temperature followed by washing with PBST four times. The TMB substrate solution was added 100 μL/well. The color was permitted to develop for 15 minutes and then 100 μL/well 2N H₂SO₄ was added to terminate the reaction. Absorbance at 450 nm and 620 nm was determined by a Tecan F200 Pro reader.

[2] = biological target: T2, human B7-H3 protein (human, UniProt Q5ZPR3 29-461, limits assumed)
T2 sequence (looked up): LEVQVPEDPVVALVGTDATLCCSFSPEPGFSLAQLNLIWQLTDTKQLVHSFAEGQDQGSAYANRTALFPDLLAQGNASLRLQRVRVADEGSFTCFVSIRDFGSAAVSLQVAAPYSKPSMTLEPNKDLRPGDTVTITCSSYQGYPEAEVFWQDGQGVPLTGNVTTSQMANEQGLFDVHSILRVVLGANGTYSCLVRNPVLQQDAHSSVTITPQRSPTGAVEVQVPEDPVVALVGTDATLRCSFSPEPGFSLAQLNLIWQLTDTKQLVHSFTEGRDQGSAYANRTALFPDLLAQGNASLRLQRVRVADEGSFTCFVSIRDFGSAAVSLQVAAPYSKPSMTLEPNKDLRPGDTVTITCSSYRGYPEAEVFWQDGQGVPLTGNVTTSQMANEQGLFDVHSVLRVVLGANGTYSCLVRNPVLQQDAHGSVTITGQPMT
Description: as §1

[3] = biological target: human CD47 protein (human, UniProt Q08722 19-139)
Description: as §1

[4] = biological target: human VISTA protein (human, UniProt Q9H7M9 33-194)
Description: as §1

[5] = biological target: human PD-1 protein (human, UniProt Q15116 25-167)
Description: as §1

[6] = biological target: T3, human CD20 protein (human, UniProt P11836 1-297, limits assumed)
T3 sequence (looked up): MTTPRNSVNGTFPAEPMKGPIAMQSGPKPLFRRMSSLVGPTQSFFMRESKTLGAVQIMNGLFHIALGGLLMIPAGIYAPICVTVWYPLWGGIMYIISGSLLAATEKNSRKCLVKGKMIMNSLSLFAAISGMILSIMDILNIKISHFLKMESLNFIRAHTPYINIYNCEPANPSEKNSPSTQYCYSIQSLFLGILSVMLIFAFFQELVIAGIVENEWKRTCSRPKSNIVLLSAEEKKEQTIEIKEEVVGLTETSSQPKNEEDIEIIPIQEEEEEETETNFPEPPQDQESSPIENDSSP
Description: as §1

[7] = biological target: T4, human LTBR protein (human, UniProt P36941 31-227)
T4 construct: also called LT β R; LTβR
Description: as §1

[8] = biological target: T5, mouse CD137 protein (mouse, UniProt P20334 24-187)
T5 construct: Coated on ELISA plates; also called Rodent CD137; murine CD137
T5 sequence (looked up): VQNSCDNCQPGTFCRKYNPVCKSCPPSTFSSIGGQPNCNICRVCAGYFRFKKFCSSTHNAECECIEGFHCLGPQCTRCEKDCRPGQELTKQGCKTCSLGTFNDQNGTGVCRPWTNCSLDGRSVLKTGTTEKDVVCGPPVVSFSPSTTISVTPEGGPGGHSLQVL
Description: as §1

[9] = biological target: T6, rat CD137 protein (rat, UniProt Q4W8J3 24-189)
T6 construct: Coated on ELISA plates; also called Rodent CD137
T6 sequence: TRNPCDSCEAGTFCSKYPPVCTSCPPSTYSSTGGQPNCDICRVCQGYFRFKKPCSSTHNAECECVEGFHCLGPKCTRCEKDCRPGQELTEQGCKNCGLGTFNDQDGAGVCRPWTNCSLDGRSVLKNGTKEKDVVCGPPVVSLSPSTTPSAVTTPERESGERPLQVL
Description: as §1

[10] = biological target: human CD40 protein (human, UniProt P25942 21-193)
Description: as §1

[11] = biological target: human PD-L1 protein (human, UniProt Q9NZQ7 19-238)
Description: as §1

[12] = biological target: human CD27 protein (human, UniProt P26842 21-192, limits assumed)
Description: as §1

[13] = biological target: T7, human LAG-3 protein (human, UniProt P18627 23-450)
T7 sequence (looked up): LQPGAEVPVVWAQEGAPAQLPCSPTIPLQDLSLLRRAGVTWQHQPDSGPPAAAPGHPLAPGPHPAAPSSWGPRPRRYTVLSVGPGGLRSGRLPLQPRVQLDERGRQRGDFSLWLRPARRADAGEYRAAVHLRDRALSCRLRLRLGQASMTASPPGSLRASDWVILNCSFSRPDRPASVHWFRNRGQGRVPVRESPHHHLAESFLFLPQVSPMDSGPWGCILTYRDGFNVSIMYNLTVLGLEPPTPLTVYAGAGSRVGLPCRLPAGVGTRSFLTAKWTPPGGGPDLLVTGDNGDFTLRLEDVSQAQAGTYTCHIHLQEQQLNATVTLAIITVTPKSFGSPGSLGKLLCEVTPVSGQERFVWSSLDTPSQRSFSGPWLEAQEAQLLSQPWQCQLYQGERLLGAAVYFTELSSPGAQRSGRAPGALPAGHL
Description: as §1

human CD40 protein, sequence (P25942 21-193 limits assumed): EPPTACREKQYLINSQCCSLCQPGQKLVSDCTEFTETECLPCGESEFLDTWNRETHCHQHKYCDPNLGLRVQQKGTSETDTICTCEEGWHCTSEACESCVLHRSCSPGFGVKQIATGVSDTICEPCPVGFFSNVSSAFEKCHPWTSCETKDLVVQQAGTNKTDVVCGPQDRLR
human CD47 protein, sequence (Q08722 19-139 limits assumed): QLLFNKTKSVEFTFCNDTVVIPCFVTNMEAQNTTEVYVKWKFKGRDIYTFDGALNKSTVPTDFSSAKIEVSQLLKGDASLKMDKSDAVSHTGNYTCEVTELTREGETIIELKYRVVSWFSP
T4 sequence (P36941 31-227 limits assumed): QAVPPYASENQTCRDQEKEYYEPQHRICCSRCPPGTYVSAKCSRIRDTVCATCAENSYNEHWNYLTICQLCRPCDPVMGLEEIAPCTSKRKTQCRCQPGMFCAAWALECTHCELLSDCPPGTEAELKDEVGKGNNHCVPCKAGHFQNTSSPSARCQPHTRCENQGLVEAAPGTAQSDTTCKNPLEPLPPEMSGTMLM
human PD-1 protein, sequence (Q15116 25-167 limits assumed): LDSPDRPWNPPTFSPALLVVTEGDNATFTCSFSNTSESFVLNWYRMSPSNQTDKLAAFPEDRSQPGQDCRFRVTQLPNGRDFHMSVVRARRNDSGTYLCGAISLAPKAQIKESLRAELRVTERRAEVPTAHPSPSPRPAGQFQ
human PD-L1 protein, sequence (Q9NZQ7 19-238 limits assumed): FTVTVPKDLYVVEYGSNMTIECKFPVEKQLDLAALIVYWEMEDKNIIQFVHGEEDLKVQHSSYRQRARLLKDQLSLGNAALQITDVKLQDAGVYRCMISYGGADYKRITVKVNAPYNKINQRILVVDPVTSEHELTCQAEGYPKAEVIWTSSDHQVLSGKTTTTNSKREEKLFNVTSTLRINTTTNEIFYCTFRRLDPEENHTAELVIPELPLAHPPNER
human CD27 protein, sequence (P26842 21-192 limits assumed): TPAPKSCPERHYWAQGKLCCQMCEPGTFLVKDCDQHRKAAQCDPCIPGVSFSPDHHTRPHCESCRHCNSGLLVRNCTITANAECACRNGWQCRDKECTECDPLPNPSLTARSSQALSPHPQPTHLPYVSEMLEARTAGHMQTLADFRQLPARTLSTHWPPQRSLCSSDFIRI

B1: Clone 3712-IgG1v (IgG1v/kappa) (antibody)
heavy: QVQLVQSGAEVKKPGASVKVSCKASGYTFAGFEMHWVRQAPGQGLEWMGAIDPKTGGTDYNQKFKDRVTMTRDTSISTAYMELSRLRSDDTAVYYCARDLGYFDVWGQGTLVTVSSASTKGPSVFPLAPSSKSTSGGTAALGCLVKDYFPEPVTVSWNSGALTSGVHTFPAVLQSSGLYSLSSVVTVPSSSLGTQTYICNVNHKPSNTKVDKKVEPKSCDKTHTCPPCPAPELLGPSVFLFPPKPKDTLMISRTPEVTCVVVDVEHEDPEVKFNWYVDGVEVHNAKTKPREEQYNSTYRVVSVLTVLHQDWLNGKEYKCKVSNKALPAPIEKTISKAKGQPREPQVYTLPPSREEMTKNQVSLTCLVKGFYPSDIAVEWESNGQPENNYKTTPPVLDSDGSFFLYSKLTVDKSRWQQGNVFSCSVMHEALHNHYTQKSLSLSPGK
light: DIQMTQSPSSLSASVGDRVTITCRASQDIRSNLNWYQQKPGGAVKLLIYYTSRLHSGVPSRFSGSGSGTDYTLTISSLQPEDFATYFCQQSEKLPRTFGGGTKVEIRRTVAAPSVFIFPPSDEQLKSGTASVVCLLNNFYPREAKVQWKVDNALQSGNSQESVTEQDSKDSTYSLSSTLTLSKADYEKHKVYACEVTHQGLSSPVTKSFNRGEC
notes: copies: 2 + 2
**Q.** Does B1 bind [1]?
**A.** Result: no binding (tested: 10 µg/mL and 1 µg/mL)

**Q.** Does B1 bind [2]?
**A.** Result: no binding (tested: 10 µg/mL and 1 µg/mL)

**Q.** Does B1 bind [3]?
**A.** Result: no binding (tested: 10 µg/mL and 1 µg/mL)

**Q.** Does B1 bind [4]?
**A.** Result: no binding (tested: 10 µg/mL and 1 µg/mL)

**Q.** Does B1 bind [5]?
**A.** Result: no binding (tested: 10 µg/mL and 1 µg/mL)

**Q.** Does B1 bind [6]?
**A.** Result: no binding (tested: 10 µg/mL and 1 µg/mL)

**Q.** Does B1 bind [7]?
**A.** Result: no binding (tested: 10 µg/mL and 1 µg/mL)

**Q.** Does B1 bind [8]?
**A.** Result: no binding (tested: 10 µg/mL and 1 µg/mL)

**Q.** Does B1 bind [9]?
**A.** Result: no binding (tested: 10 µg/mL and 1 µg/mL)

**Q.** Does B1 bind [10]?
**A.** Result: no binding (tested: 10 µg/mL and 1 µg/mL)

**Q.** Does B1 bind [11]?
**A.** Result: no binding (tested: 10 µg/mL and 1 µg/mL)

**Q.** Does B1 bind [12]?
**A.** Result: no binding (tested: 10 µg/mL and 1 µg/mL)

**Q.** Does B1 bind [13]?
**A.** Result: no binding (tested: 10 µg/mL and 1 µg/mL)
